Article PMC8431534

Biological target: Myc-tagged PTK7 (Xenopus protein tyrosine kinase 7, full length) (Xenopus)
Experiment: co-IP; HEK293 cells co-transfected with Myc-tagged PTK7 and GFP-tagged constructs; immunoprecipitation with anti-Myc, Dynabeads Protein G, Western blot (Figure 5B)

quantity co-precipitated with full-length PTK7 in respect to input, densitometry, relative to PTK7 = 1 (relative to PTK7 = 1): 2.6
Substance: ΔkPTK7-GFP (Xenopus Ptk7 with the kinase domain deleted, GFP-tagged) (receptor)
